Results from patent US20160166636A1.
Square brackets hold non-standard residues; d marks the D form. Ends that are not written are not given here. Met(O) = CS(=O)CC[C@H](N)C(=O)O; pS = N[C@@H](COP(=O)(O)O)C(=O)O

B1: P140 peptide (peptide consisting of SEQ ID NO: 1 in which serine at position 10 is phosphorylated) (peptide)
peptide: RIHMVYSKR[pS]GKPRGYAFIEY
B2: P140(MO) peptide (SEQ ID NO: 4; SEQ ID NO: 1 with phosphoserine at position 10 and oxidized methionine at position 4) (peptide)
peptide: RIH[Met(O)]VYSKR[pS]GKPRGYAFIEY

Experiments:
[1] = target: Recombinant bovine HSC70 (Stressgen) (bovine) (UniProt P19120); test: SPR Biacore 3000, HSC70 immobilised, peptide analyte at 25 uM, 1:1 Langmuir fit
Sequence of Recombinant bovine HSC70 (Stressgen) (bovine) (P19120 whole entry): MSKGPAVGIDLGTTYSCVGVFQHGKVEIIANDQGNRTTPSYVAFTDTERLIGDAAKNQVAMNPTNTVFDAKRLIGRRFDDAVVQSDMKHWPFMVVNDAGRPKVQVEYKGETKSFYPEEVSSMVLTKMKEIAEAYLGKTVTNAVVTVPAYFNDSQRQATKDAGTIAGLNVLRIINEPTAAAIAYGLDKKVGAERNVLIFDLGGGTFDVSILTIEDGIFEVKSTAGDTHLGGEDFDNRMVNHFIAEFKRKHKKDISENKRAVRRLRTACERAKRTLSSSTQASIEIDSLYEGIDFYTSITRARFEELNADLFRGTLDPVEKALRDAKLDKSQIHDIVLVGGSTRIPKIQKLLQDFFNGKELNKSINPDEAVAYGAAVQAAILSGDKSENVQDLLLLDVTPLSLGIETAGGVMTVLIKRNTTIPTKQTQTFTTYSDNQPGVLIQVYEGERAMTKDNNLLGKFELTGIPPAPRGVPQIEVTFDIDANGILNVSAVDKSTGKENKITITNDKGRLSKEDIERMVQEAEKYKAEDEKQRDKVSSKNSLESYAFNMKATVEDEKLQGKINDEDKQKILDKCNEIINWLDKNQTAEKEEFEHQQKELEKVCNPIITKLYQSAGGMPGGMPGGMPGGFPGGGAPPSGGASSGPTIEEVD

[2] = target: Recombinant bovine HSC70 (Stressgen) (bovine) (UniProt P19120); test: SPR Biacore 3000, HSC70 immobilised, peptide analyte at 1.56 uM, 1:1 Langmuir fit
[3] = target: Recombinant bovine HSC70 (Stressgen) (bovine) (UniProt P19120); test: SPR Biacore 3000, HSC70 immobilised, peptide analyte at 12.5 uM, 1:1 Langmuir fit
[4] = target: Recombinant bovine HSC70 (Stressgen) (bovine) (UniProt P19120); test: SPR Biacore 3000, HSC70 immobilised, peptide analyte at 3.12 uM, 1:1 Langmuir fit
[5] = target: Recombinant bovine HSC70 (Stressgen) (bovine) (UniProt P19120); test: SPR Biacore 3000, HSC70 immobilised, peptide analyte at 6.25 uM, 1:1 Langmuir fit
[6] = target: Recombinant bovine HSC70 (Stressgen) (bovine) (UniProt P19120); test: SPR Biacore 3000, HSC70 immobilised on CM5, peptide as analyte 1.56-25 uM, 1:1 Langmuir global fit, 25 C

Binder | Ka [1] | Kd [1] | Req [1] | kobs [1] | koff [1] | Ka [2] | Kd [2] | Req [2] | kobs [2] | koff [2] | Ka [3] | Kd [3] | Req [3] | kobs [3] | koff [3] | Ka [4] | Kd [4] | Req [4] | kobs [4] | koff [4] | also measured
B1 | 144000 M⁻¹ | 6.94 µM | 65.2 RU | 0.0144 s⁻¹ | 0.00312 s⁻¹ | 144000 M⁻¹ | 6.94 µM | 15.3 RU | 0.00382 s⁻¹ | 0.00312 s⁻¹ | 144000 M⁻¹ | 6.94 µM | 53.6 RU | 0.00874 s⁻¹ | 0.00312 s⁻¹ | 144000 M⁻¹ | 6.94 µM | 25.8 RU | 0.00452 s⁻¹ | 0.00312 s⁻¹ | Ka [5]: 144000 M⁻¹; Kd [5]: 6.94 µM; Req [5]: 39.5 RU; kobs [5]: 0.00593 s⁻¹; koff [5]: 0.00312 s⁻¹; kon [6]: 450 M⁻¹ s⁻¹
B2 | 524000 M⁻¹ | 1.91 µM | 36.3 RU | 0.031 s⁻¹ | 0.0022 s⁻¹ | 524000 M⁻¹ | 1.91 µM | 17.6 RU | 0.004 s⁻¹ | 0.0022 s⁻¹ | 524000 M⁻¹ | 1.91 µM | 33.9 RU | 0.0166 s⁻¹ | 0.0022 s⁻¹ | 524000 M⁻¹ | 1.91 µM | 24.2 RU | 0.0058 s⁻¹ | 0.0022 s⁻¹ | Ka [5]: 524000 M⁻¹; Kd [5]: 1.91 µM; Req [5]: 29.9 RU; kobs [5]: 0.0094 s⁻¹; koff [5]: 0.0022 s⁻¹; kon [6]: 1150 M⁻¹ s⁻¹
